Literature values as cited in article PMC4283463 (Journal of pharmaceutical sciences, 2014).

human growth hormone [hGH]
decrease in stability on carbamidomethylation of all four Cys residues: ~ 37.7 kJ/mol
